According to US11512128B2, “VEGF/DLL4 binding agents and uses thereof” (MEREO BIOPHARMA 5, INC., priority 2011, dated 2022):

Columns and labels:
OMP-C8 colon tumor [1] = test: OMP-C8 colon tumor recurrence model; format: in vivo, NOD/SCID mice; conditions: 21M18, bevacizumab 7.5 mg/kg, bispecifics 15 mg/kg weekly ip; irinotecan 45 mg/kg for first four weeks
Protocol: FIG. 9. Inhibition of colon tumor growth by anti-VEGF/anti-DLL4 bispecific antibodies in tumor recurrence model. OMP-C8 colon tumor cells were injected subcutaneously in NOD/SCID mice. Mice were treated with control antibody (-▪-), anti-hDLL4 antibody 21M18 (-●-), anti-VEGF antibody bevacizumab (-▴-), a combination of 21M18 and bevacizumab (-▾-), anti-VEGF/anti-DLL4 bispecific antibody 219R45-MB-21M18 (-⋄-), or anti-VEGF/anti-DLL4 bispecific antibody 219R45-MB-21R79 (-∘-), all in combination with irinotecan. Antibodies 21M18 and bevacizumab were administered intraperitoneally at a dose of 7.5 mg/kg once a week, bispecific antibodies 219R45-MB-21M18 and 219R45-MB-21R79 were administered intraperitoneally at a dose of 15 mg/kg once a week, and irinotecan was administered for the first 4 weeks at a dose of 45 mg/kg. Data are shown as tumor volume (mm^3) over days post-treatment.
Single cell suspensions of OMP-C8 colon tumor xenografts (20,000 cells) were injected subcutaneously into the flanks of 6-8 week old NOD/SCID mice. […] Tumor growth was monitored and tumor volumes were measured with electronic calipers at the indicated time points. Data are expressed as mean±S.E.M.

[2] = Non-GLP toxicity study in cynomolgus monkeys; format: in vivo; conditions: after 15 weeks
Protocol: A non-GLP toxicity study in cynomolgus monkeys was initiated to evaluate and compare the toxicity profile of some of the bispecific antibodies. The animals were dosed with 0 mg/kg (control), 5 mg/kg (low dose), or 30 mg/kg (high dose) of anti-DLL4/anti-VEGF bispecific antibody (219R45-MB-21M18, 219R45-MB-21R83, or 219R45-MB-21R79) every 2 weeks via IV infusion. 3 males and 3 females were dosed in each group. After 15 weeks, mean body weights were lower in animals receiving the high dose of 219R45-MB-21R79 than in animals that received the high dose of either […] or 219R45-MB-21R83. In addition, mean serum albumin levels were lower in animals that received 219R45-MB-21R79 than in those that received either […] or 219R45-MB-21R83.

OMP-C8 colon tumor [3] = test: OMP-C8 colon tumor growth in vivo; design: species or system NOD/SCID mice
Protocol: FIGS. 11A and 11B. Inhibition of colon tumor growth in vivo by anti-VEGF/anti-DLL4 bispecific antibodies. OMP-C8 colon tumor cells were injected subcutaneously into NOD/SCID mice. Mice were treated with control antibody (-▪-), anti-VEGF antibody bevacizumab (-▴-), or anti-VEGF/anti-DLL4 bispecific antibodies 219R45-MB-21M18 (-⋄-), 219R45-MB-21R75 (-●-), 219R45-MB-21R79 (-∘-), or 219R45-MB-21R83 (-▾-). Mice were treated with antibodies as single agents (FIG. 11A) or in combination with irinotecan (FIG. 11B). Antibodies were administered intraperitoneally at a dose of 15 mg/kg once a week and irinotecan at a dose of 7.5 mg/kg one a week. Data are shown as tumor volume (mm^3) over days post-treatment.
Single cell suspensions of OMP-C8 colon tumor xenografts (50,000 cells) were injected subcutaneously into the flanks of 6-8 week old NOD/SCID mice. Tumors were allowed to grow for 21 days until they reached an average volume of 80 mm^3. The mice were randomized (n=8 per group) and treated with anti-DLL4 antibody 21M18, anti-VEGF antibody bevacizumab, anti-VEGF/anti-DLL4 bispecific antibodies 219R45-MB-21M18, 219R45-MB-21R75, 219R45-MB-21R79, 219R45-MB-21R83, or control antibody, either alone or in combination with irinotecan. Antibodies and irinotecan were dosed weekly by injection into the intraperitoneal cavity. Bevacizumab and bispecific antibodies 219R45-MB-21M18, 219R45-MB-21R75, 219R45-MB-21R79, and 219R45-MB-21R83 were dosed at 15 mg/kg, and irinotecan was dosed at 7.5 mg/kg. Tumor growth was monitored and tumor volumes were measured with electronic calipers at the indicated time points. Data are expressed as mean±S.E.M.
Following the treatment phase, tumor sections were prepared and analyzed by hematoxylin and eosin (H&E) staining. […] This is characteristic of highly necrotic tumor tissue.

B1: 21M18: anti-DLL4 antibody, parental antibody (Hoey et al., 2009; U.S. Pat. No. 7,750,124) (antibody, V domains shown)
VH: QVQLVQSGAEVKKPGASVKISCKASGYSFTAYYIHWVKQAPGQGLEWIGYISSYNGATNYNQKFKGRVTFTTDTSTSTAYMELRSLRSDDTAVYYCARDYDYDVGMDYWGQGTLVTVSS
VL: DIVMTQSPDSLAVSLGERATISCRASESVDNYGISFMKWFQQKPGQPPKLLIYAASNQGSGVPDRFSGSGSGTDFTLTISSLQAEDVAVYYCQQSKEVPWTFGGGTKVEIK
Which “inhibition of tumor regrowth after irinotecan was stopped” value (OMP-C8 colon tumor [1]) does the source give for B1 here?
The value was “continued to inhibit tumor growth after treatment with irinotecan was stopped”.

B2: 219R45-MB-21R79: anti-VEGF/anti-DLL4 monovalent/bispecific antibody, heavy chains SEQ ID NO:7 and 6, light chains SEQ ID NO:8 (antibody)
heavy 1: QVQLVQSGAEVKKPGASVKVSCKASGYTFTNYWMHWVRQAPGQGLEWMGDINPSNGRTSYKEKFKRRVTLSVDKSSSTAYMELSSLRSEDTAVYFCTIHYDDKYYPLMDYWGQGTLVTVSSASTKGPSVFPLAPCSRSTSESTAALGCLVKDYFPEPVTVSWNSGALTSGVHTFPAVLQSSGLYSLSSVVTVPSSNFGTQTYTCNVDHKPSNTKVDKTVERKCCVECPPCPAPPVAGPSVFLFPPKPKDTLMISRTPEVTCVVVDVSHEDPEVQFNWYVDGVEVHNAKTKPREEQFNSTFRVVSVLTVVHQDWLNGKEYKCKVSNKGLPAPIEKTISKTKGQPREPQVYTLPPSREKMTKNQVSLTCLVKGFYPSDIAVEWESNGQPENNYKTTPPMLKSDGSFFLYSKLTVDKSRWQQGNVFSCSVMHEALHNHYTQKSLSLSPGK
heavy 2: QVQLVQSGAEVKKPGASVKISCKASGYSFTAYYIHWVKQAPGQGLEWIGYIANYNRATNYNQKFKGRVTFTTDTSTSTAYMELRSLRSDDTAVYYCARDYDYDVGMDYWGQGTLVTVSSASTKGPSVFPLAPCSRSTSESTAALGCLVKDYFPEPVTVSWNSGALTSGVHTFPAVLQSSGLYSLSSVVTVPSSNFGTQTYTCNVDHKPSNTKVDKTVERKCCVECPPCPAPPVAGPSVFLFPPKPKDTLMISRTPEVTCVVVDVSHEDPEVQFNWYVDGVEVHNAKTKPREEQFNSTFRVVSVLTVVHQDWLNGKEYKCKVSNKGLPAPIEKTISKTKGQPREPQVYTLPPSREEMTKNQVSLTCLVEGFYPSDIAVEWESNGQPENNYKTTPPMLDSDGSFFLYSELTVDKSRWQQGNVFSCSVMHEALHNHYTQKSLSLSPGK
light: DIVMTQSPDSLAVSLGERATISCRASESVDNYGISFMKWFQQKPGQPPKLLIYAASNQGSGVPDRFSGSGSGTDFTLTISSLQAEDVAVYYCQQSKEVPWTFGGGTKVEIKRTVAAPSVIFPPSDEQLKSGTASVVCLLNNFYPREAKVQWKVDNALQSGNSQESVTEQDSKDSTYSLSSTLTLSKADYEKHKVYACEVTHQGLSSPVTKSFNRGEC
modifications: 21R79 Heavy chain without predicted signal sequence; Light chain without predicted signal sequence
What does the source list for B2?
mean serum albumin levels ([2]; every 2 weeks IV infusion): lower; mean body weights ([2]; high dose 30 mg/kg every 2 weeks IV infusion): lower

B3: 219R45-MB-21M18: anti-VEGF/anti-DLL4 monovalent/bispecific antibody, heavy chains SEQ ID NO:7 and 5, light chains SEQ ID NO:8 (antibody)
heavy 1: QVQLVQSGAEVKKPGASVKVSCKASGYTFTNYWMHWVRQAPGQGLEWMGDINPSNGRTSYKEKFKRRVTLSVDKSSSTAYMELSSLRSEDTAVYFCTIHYDDKYYPLMDYWGQGTLVTVSSASTKGPSVFPLAPCSRSTSESTAALGCLVKDYFPEPVTVSWNSGALTSGVHTFPAVLQSSGLYSLSSVVTVPSSNFGTQTYTCNVDHKPSNTKVDKTVERKCCVECPPCPAPPVAGPSVFLFPPKPKDTLMISRTPEVTCVVVDVSHEDPEVQFNWYVDGVEVHNAKTKPREEQFNSTFRVVSVLTVVHQDWLNGKEYKCKVSNKGLPAPIEKTISKTKGQPREPQVYTLPPSREKMTKNQVSLTCLVKGFYPSDIAVEWESNGQPENNYKTTPPMLKSDGSFFLYSKLTVDKSRWQQGNVFSCSVMHEALHNHYTQKSLSLSPGK
heavy 2: QVQLVQSGAEVKKPGASVKISCKASGYSFTAYYIHWVKQAPGQGLEWIGYISSYNGATNYNQKFKGRVTFTTDTSTSTAYMELRSLRSDDTAVYYCARDYDYDVGMDYWGQGTLVTVSSASTKGPSVFPLAPCSRSTSESTAALGCLVKDYFPEPVTVSWNSGALTSGVHTFPAVLQSSGLYSLSSVVTVPSSNFGTQTYTCNVDHKPSNTKVDKTVERKCCVECPPCPAPPVAGPSVFLFPPKPKDTLMISRTPEVTCVVVDVSHEDPEVQFNWYVDGVEVHNAKTKPREEQFNSTFRVVSVLTVVHQDWLNGKEYKCKVSNKGLPAPIEKTISKTKGQPREPQVYTLPPSREEMTKNQVSLTCLVEGFYPSDIAVEWESNGQPENNYKTTPPMLDSDGSFFLYSELTVDKSRWQQGNVFSCSVMHEALHNHYTQKSLSLSPGK
light: DIVMTQSPDSLAVSLGERATISCRASESVDNYGISFMKWFQQKPGQPPKLLIYAASNQGSGVPDRFSGSGSGTDFTLTISSLQAEDVAVYYCQQSKEVPWTFGGGTKVEIKRTVAAPSVIFPPSDEQLKSGTASVVCLLNNFYPREAKVQWKVDNALQSGNSQESVTEQDSKDSTYSLSSTLTLSKADYEKHKVYACEVTHQGLSSPVTKSFNRGEC
modifications: 21R79 Heavy chain without predicted signal sequence; 21M18 Heavy chain without predicted signal sequence; Light chain without predicted signal sequence
With B3 as the molecule, how does the “inhibition of tumor regrowth after irinotecan was stopped” value (OMP-C8 colon tumor [1]) read?
Its value is “more effective at inhibiting tumor regrowth than the mixture of the two antibodies”.

What about the “inhibition of tumor growth in combination with irinotecan” value (OMP-C8 colon tumor [3]; antibody 15 mg/kg, irinotecan 7.5 mg/kg weekly ip) of the same molecule?
Its value is “greatest inhibition of tumor growth”.

What about the “H&E staining of tumor sections after treatment” value (OMP-C8 colon tumor [3]; in combination with irinotecan) of the same molecule?
Its value is “dark pink staining regions providing evidence of extensive calcification”.
